In patent US20150285810A1 (LUDWIG INSTITUTE FOR CANCER RESEARCH, published 2015):

T1: iASPP (249-482)-GST (human, UniProt Q8WUF5 249-482)
T1 construct: not shown: GST tag from pGEX vector
T1 sequence: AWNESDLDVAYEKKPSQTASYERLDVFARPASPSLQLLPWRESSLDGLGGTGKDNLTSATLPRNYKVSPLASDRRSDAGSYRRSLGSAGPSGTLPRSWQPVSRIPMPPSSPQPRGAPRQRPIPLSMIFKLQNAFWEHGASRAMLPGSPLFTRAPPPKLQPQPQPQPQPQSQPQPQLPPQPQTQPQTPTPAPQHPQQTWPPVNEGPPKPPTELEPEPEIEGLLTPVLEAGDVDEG

T2: iASPP (1-240)-GST (human, UniProt Q8WUF5 1-240)
T2 construct: Expressed in bacteria, purified on glutathione beads; also called N-terminal iASPP; not shown: GST tag from pGEX vector (BamHI/EcoRI cloning)
T2 sequence: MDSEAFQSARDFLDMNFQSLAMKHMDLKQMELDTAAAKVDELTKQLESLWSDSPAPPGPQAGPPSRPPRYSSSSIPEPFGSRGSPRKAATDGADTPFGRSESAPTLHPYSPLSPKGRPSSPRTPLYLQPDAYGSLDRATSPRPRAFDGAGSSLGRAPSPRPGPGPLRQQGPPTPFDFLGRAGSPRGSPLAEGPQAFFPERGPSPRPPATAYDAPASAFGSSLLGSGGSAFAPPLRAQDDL

B1: iASPP (625-828)-His (other)
chain: LNPLVLLLDAALTGELEVVQQAVKEMNDPSQPNEEGITALHNAICGANYSIVDFLITAGANVNSPDSHGWTPLHCAASCNDTVICMALVQHGAAIFATTLSDGATAFEKCDPYREGYADCATYLADVEQSMGLMNSGAVYALWDYSAEFGDELSFREGESVTVLRRDGPEETDWWWAALHGQEGYVPRNYFGLFPRVKPQRSKVHHHHHH
notes: Contains the ankyrin repeats and SH3 domain; FITC-labelled in the nuclear import assay; also called C-terminal iASPP

Assays:
iASPP (249-482)-GST = biological target: T1, iASPP (249-482)-GST; assay: glutathione bead pull-down of purified proteins, anti-His blot
iASPP (1-240)-GST [1] = biological target: T2, iASPP (1-240)-GST; assay: as above
iASPP (625-828)-His = biological target: B1; assay: as above
[2] = biological target: p53, transfected (co-transfected in H1299 cells; transfected in Saos-2 cells) (UniProt P04637 1-393); assay: cell-based or functional assay
iASPP (1-240)-GST [3] = biological target: T2, iASPP (1-240)-GST; assay: in vitro translated iASPP(625-828)-V5 pulled down with iASPP(1-240)-GST glutathione beads
iASPP (1-240)-GST [4] = biological target: T2, iASPP (1-240)-GST; assay: in vitro translated iASPP(625-828)-V5 mutant pulled down with iASPP(1-240)-GST glutathione beads

Chain of p53, transfected (co-transfected in H1299 cells; transfected in Saos-2 cells) (P04637 whole entry): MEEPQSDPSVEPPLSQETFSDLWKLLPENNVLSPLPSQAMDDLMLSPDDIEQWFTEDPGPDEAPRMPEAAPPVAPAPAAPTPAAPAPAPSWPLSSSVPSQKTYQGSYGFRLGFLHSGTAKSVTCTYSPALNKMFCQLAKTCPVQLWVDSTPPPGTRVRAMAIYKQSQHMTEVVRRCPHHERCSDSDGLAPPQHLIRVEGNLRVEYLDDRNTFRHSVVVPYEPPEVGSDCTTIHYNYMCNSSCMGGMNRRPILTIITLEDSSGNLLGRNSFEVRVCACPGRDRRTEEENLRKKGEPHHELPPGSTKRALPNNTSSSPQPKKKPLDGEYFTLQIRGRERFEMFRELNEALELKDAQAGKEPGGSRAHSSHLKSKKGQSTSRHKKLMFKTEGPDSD

binding result (iASPP (1-240)-GST [4]) | Binder | further results
 | B1 | binding result (iASPP (249-482)-GST): no binding (tested: 10 µg/ml each)
 | ASPP2 (905-1128)-His (other, FITC-labelled in the nuclear import assay; also called C-terminus of ASPP2) RTNLRKTGSERIAHGMRVKFNPLALLLDSSLEGEFDLVQRIIYEVDDPSLPNDEGITALHNAVCAGHTEIVKFLVQFGVNVNAADSDGWTPLHCAASCNNVQVCKFLVESGAAVFAMTYSDMQTAADKCEEMEEGYTQCSQFLYGVQEKMGIMNKGVIYALWDYEPQNDDELPMKEGDCMTIIHREDEDEIEWWWARLNDKEGYVPRNLLGLYPRIKPRQRSLAHHHHHH | binding result (iASPP (1-240)-GST [1]): no binding (tested: 10 µg/ml each)
 | iASPP (1-240) S84D/S113D (other, also called iASPP phosphor-mimic mutant; not shown: GST tag from pGEX vector) MDSEAFQSARDFLDMNFQSLAMKHMDLKQMELDTAAAKVDELTKQLESLWSDSPAPPGPQAGPPSRPPRYSSSSIPEPFGSRGDPRKAATDGADTPFGRSESAPTLHPYSPLDPKGRPSSPRTPLYLQPDAYGSLDRATSPRPRAFDGAGSSLGRAPSPRPGPGPLRQQGPPTPFDFLGRAGSPRGSPLAEGPQAFFPERGPSPRPPATAYDAPASAFGSSLLGSGGSAFAPPLRAQDDL | binding result (iASPP (625-828)-His): no binding (tested: 10 µg/ml each)
 | iASPP(S84D/S113D)-V5 (other, not shown: small tags and cut ends) MDSEAFQSARDFLDMNFQSLAMKHMDLKQMELDTAAAKVDELTKQLESLWSDSPAPPGPQAGPPSRPPRYSSSSIPEPFGSRGDPRKAATDGADTPFGRSESAPTLHPYSPLDPKGRPSSPRTPLYLQPDAYGSLDRATSPRPRAFDGAGSSLGRAPSPRPGPGPLRQQGPPTPFDFLGRAGSPRGSPLAEGPQAFFPERGPSPRPPATAYDAPASAFGSSLLGSGGSAFAPPLRAQDDLTLRRRPPKAWNESDLDVAYEKKPSQTASYERLDVFARPASPSLQLLPWRESSLDGLGGTGKDNLTSATLPRNYKVSPLASDRRSDAGSYRRSLGSAGPSGTLPRSWQPVSRIPMPPSSPQPRGAPRQRPIPLSMIFKLQNAFWEHGASRAMLPGSPLFTRAPPPKLQPQPQPQPQPQSQPQPQLPPQPQTQPQTPTPAPQHPQQTWPPVNEGPPKPPTELEPEPEIEGLLTPVLEAGDVDEGPVARPLSPTRLQPALPPEAQSVPELEEVARVLAEIPRPLKRRGSMEQAPAVALPPTHKKQYQQIISRLFHRHGGPGPGGPEPELSPITEGSEARAGPPAPAPPAPIPPPAPSQSSPPEQPQSMEMRSVLRKAGSPRKARRARLNPLVLLLDAALTGELEVVQQAVKEMNDPSQPNEEGITALHNAICGANYSIVDFLITAGANVNSPDSHGWTPLHCAASCNDTVICMALVQHGAAIFATTLSDGATAFEKCDPYREGYADCATYLADVEQSMGLMNSGAVYALWDYSAEFGDELSFREGESVTVLRRDGPEETDWWWAALHGQEGYVPRNYFGLFPRVKPQRSKV | inhibition of p53 mediated transcription (PIG3 reporter, Saos-2 cells), against wild type iASPP [2]: ~3 fold
 | iASPP (625-828)-V5, wild type, in vitro translated (other, not shown: V5 tag) LNPLVLLLDAALTGELEVVQQAVKEMNDPSQPNEEGITALHNAICGANYSIVDFLITAGANVNSPDSHGWTPLHCAASCNDTVICMALVQHGAAIFATTLSDGATAFEKCDPYREGYADCATYLADVEQSMGLMNSGAVYALWDYSAEFGDELSFREGESVTVLRRDGPEETDWWWAALHGQEGYVPRNYFGLFPRVKPQRSKV | binding result (iASPP (1-240)-GST [3]): binds
binds | iASPP(625-828)/N813A (other, In vitro translated; not shown: V5 tag) LNPLVLLLDAALTGELEVVQQAVKEMNDPSQPNEEGITALHNAICGANYSIVDFLITAGANVNSPDSHGWTPLHCAASCNDTVICMALVQHGAAIFATTLSDGATAFEKCDPYREGYADCATYLADVEQSMGLMNSGAVYALWDYSAEFGDELSFREGESVTVLRRDGPEETDWWWAALHGQEGYVPRAYFGLFPRVKPQRSKV | 
binds | iASPP(625-828)/Y814A (other, In vitro translated; not shown: V5 tag) LNPLVLLLDAALTGELEVVQQAVKEMNDPSQPNEEGITALHNAICGANYSIVDFLITAGANVNSPDSHGWTPLHCAASCNDTVICMALVQHGAAIFATTLSDGATAFEKCDPYREGYADCATYLADVEQSMGLMNSGAVYALWDYSAEFGDELSFREGESVTVLRRDGPEETDWWWAALHGQEGYVPRNAFGLFPRVKPQRSKV | 
binds | iASPP(625-828)/L724A (other, In vitro translated; not shown: V5 tag) LNPLVLLLDAALTGELEVVQQAVKEMNDPSQPNEEGITALHNAICGANYSIVDFLITAGANVNSPDSHGWTPLHCAASCNDTVICMALVQHGAAIFATTASDGATAFEKCDPYREGYADCATYLADVEQSMGLMNSGAVYALWDYSAEFGDELSFREGESVTVLRRDGPEETDWWWAALHGQEGYVPRNYFGLFPRVKPQRSKV | 
binds | iASPP(625-828)/T722A/Y814A (other, In vitro translated; not shown: V5 tag) LNPLVLLLDAALTGELEVVQQAVKEMNDPSQPNEEGITALHNAICGANYSIVDFLITAGANVNSPDSHGWTPLHCAASCNDTVICMALVQHGAAIFAATLSDGATAFEKCDPYREGYADCATYLADVEQSMGLMNSGAVYALWDYSAEFGDELSFREGESVTVLRRDGPEETDWWWAALHGQEGYVPRNAFGLFPRVKPQRSKV | 
binds | iASPP(625-828)/T722A/N813A (other, In vitro translated; not shown: V5 tag) LNPLVLLLDAALTGELEVVQQAVKEMNDPSQPNEEGITALHNAICGANYSIVDFLITAGANVNSPDSHGWTPLHCAASCNDTVICMALVQHGAAIFAATLSDGATAFEKCDPYREGYADCATYLADVEQSMGLMNSGAVYALWDYSAEFGDELSFREGESVTVLRRDGPEETDWWWAALHGQEGYVPRAYFGLFPRVKPQRSKV | 
binds | iASPP(625-828)/T722A (other, In vitro translated; not shown: V5 tag) LNPLVLLLDAALTGELEVVQQAVKEMNDPSQPNEEGITALHNAICGANYSIVDFLITAGANVNSPDSHGWTPLHCAASCNDTVICMALVQHGAAIFAATLSDGATAFEKCDPYREGYADCATYLADVEQSMGLMNSGAVYALWDYSAEFGDELSFREGESVTVLRRDGPEETDWWWAALHGQEGYVPRNYFGLFPRVKPQRSKV | 
